Patent US20240376151A1, “STAPLED PEPTIDES AND METHODS THEREOF” (FOG PHARMACEUTICALS, INC., priority 2022, published 2024)
Numbered stars: 1 amine (or outer) side, 2 acyl side, 3 side chain; on linkers, the order of the positions; unused ones are H or OH. Bridge positions count the residues as written; N and C are the ends. Ends that are not written are not given here. Phenylene(1,4-NHCOCH2)2 = O=C(C[*:1])Nc1ccc(NC(=O)C[*:2])cc1

Target: T1, CHIP (Homo sapiens, UniProt Q9UNE7)
T1 construct: N-term truncated CHIP (also known as STUB1, Uniprot ID: Q9UNE7, residues 23-303); made in house; host or cells: E. coli BL21 CodonPlus
T1 sequence (Q9UNE7 23-303): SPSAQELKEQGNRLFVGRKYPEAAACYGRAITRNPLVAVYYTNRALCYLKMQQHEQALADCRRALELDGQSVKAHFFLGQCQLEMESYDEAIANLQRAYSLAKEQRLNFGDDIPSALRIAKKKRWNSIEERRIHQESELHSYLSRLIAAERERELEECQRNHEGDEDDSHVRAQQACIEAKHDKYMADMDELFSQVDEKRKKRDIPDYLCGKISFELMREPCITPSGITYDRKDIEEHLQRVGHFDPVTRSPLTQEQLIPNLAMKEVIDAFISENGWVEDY
Experiment: Naive Library Presenter Screening (phage, NGS), CHIP
Format: binding
Settings: for interaction data, BLANK: Blank = Media only
Description: To conduct phage library screening, previously described procedures were utilized in accordance with the present disclosure.
Next-generation sequencing was performed as described in accordance with the present disclosure.
Hit ID and Clustering is performed according to a described procedure in accordance with the present disclosure.

[1] = CHIP clusters (C83, C84), first column
[2] = CHIP clusters (C83, C84), second column
[3] = CHIP clusters (C83, C84), target concentration 10 nM
[4] = CHIP clusters (C83, C84), target concentration 30 nM
[5] = CHIP clusters (C83, C84), target concentration 100 nM
[6] = CHIP clusters (C83, C84), target concentration 300 nM
[7] = CHIP clusters (C83, C84), target concentration 1000 nM, first column
[8] = CHIP clusters (C83, C84), target concentration 1000 nM, second column
[9] = CHIP target concentration 10 nM
[10] = CHIP target concentration 30 nM
[11] = CHIP target concentration 100 nM
[12] = CHIP target concentration 300 nM
[13] = CHIP target concentration 1000 nM, first column
[14] = CHIP target concentration 1000 nM, second column

| Sequence | interaction data, BLANK [1] | interaction data, BLANK [2] | interaction data at Target Concentration 10 [3] | interaction data at Target Concentration 30 [4] | interaction data at Target Concentration 100 [5] | interaction data at Target Concentration 300 [6] | interaction data at Target Concentration 1000 [7] | interaction data at Target Concentration 1000 [8] | interaction data at Target Concentration 10 [9] | interaction data at Target Concentration 30 [10] | interaction data at Target Concentration 100 [11] | interaction data at Target Concentration 300 [12] | interaction data at Target Concentration 1000 [13] | interaction data at Target Concentration 1000 [14] |
| --- | --- | --- | --- | --- | --- | --- | --- | --- | --- | --- | --- | --- | --- | --- |
| DPAMWHCQYAAIMCNAN (DPAMWHCQYAAIMCNAN-NH2; linker 7-14 via Phenylene(1,4-NHCOCH2)2 (inferred)) | 0 | 0 | 0 | 0 | 0 | 15 | 7 | 29 | – | – | – | – | – | – |
| DPANHICHYAAHICDVD (DPANHICHYAAHICDVD-NH2; linker 7-14 via Phenylene(1,4-NHCOCH2)2 (inferred)) | 0 | 0 | 0 | 0 | 3 | 15 | 6 | 49 | – | – | – | – | – | – |
| DPAQDNCHYAAHICMVD (DPAQDNCHYAAHICMVD-NH2; linker 7-14 via Phenylene(1,4-NHCOCH2)2 (inferred)) | 0 | 0 | 0 | 0 | 0 | 47 | 25 | 57 | – | – | – | – | – | – |
| DPAQYNCYFAANICTVD (DPAQYNCYFAANICTVD-NH2; linker 7-14 via Phenylene(1,4-NHCOCH2)2 (inferred)) | 0 | 0 | 0 | 0 | 0 | 48 | 79 | 17 | – | – | – | – | – | – |
| DPASQWCQRAASICWID (DPASQWCQRAASICWID-NH2; linker 7-14 via Phenylene(1,4-NHCOCH2)2 (inferred)) | 0 | 0 | 0 | 0 | 0 | 15 | 18 | 8 | – | – | – | – | – | – |
| DPAVHNCSQAASICDVD (linker 7-14 via Phenylene(1,4-NHCOCH2)2 (inferred); not fully specified (C-terminus)) | 0 | 0 | 0 | 0 | 0 | 22 | 9 | 39 | – | – | – | – | – | – |
| DPAVRWCAAAAAICMVD (linker 7-14 via Phenylene(1,4-NHCOCH2)2 (inferred); not fully specified (C-terminus)) | 0 | 0 | 0 | 0 | 0 | 21 | 16 | 22 | – | – | – | – | – | – |
| DPAYDVCHFAAHICWID (linker 7-14 via Phenylene(1,4-NHCOCH2)2 (inferred)) | 0 | 0 | 0 | 0 | 22 | 19 | 20 | 62 | – | – | – | – | – | – |
| ICWAAWVSCS (linker 2-9 via Phenylene(1,4-NHCOCH2)2 (inferred)) | – | – | – | – | – | – | – | – | 0 | 0 | 0 | 25 | 42 | 17 |
| ICYNARLECE (linker 2-9 via Phenylene(1,4-NHCOCH2)2 (inferred)) | – | – | – | – | – | – | – | – | 1 | 2 | 13 | 16 | 21 | 20 |
| ICYNAWFECE (linker 2-9 via Phenylene(1,4-NHCOCH2)2 (inferred)) | – | – | – | – | – | – | – | – | 0 | 2 | 9 | 11 | 18 | 14 |
| ICYNAWLECA (linker 2-9 via Phenylene(1,4-NHCOCH2)2 (inferred)) | – | – | – | – | – | – | – | – | 0 | 1 | 5 | 7 | 11 | 9 |
| ICYNAWVECE (linker 2-9 via Phenylene(1,4-NHCOCH2)2 (inferred)) | – | – | – | – | – | – | – | – | 1 | 2 | 10 | 21 | 19 | 23 |
| ICYSAWLECE (linker 2-9 via Phenylene(1,4-NHCOCH2)2 (inferred)) | – | – | – | – | – | – | – | – | 1 | 3 | 13 | 25 | 22 | 28 |
| ICYTAWLECE (linker 2-9 via Phenylene(1,4-NHCOCH2)2 (inferred)) | – | – | – | – | – | – | – | – | 0 | 1 | 5 | 9 | 7 | 12 |
| PCFEAWVMCEI (linker 2-9 via Phenylene(1,4-NHCOCH2)2 (inferred)) | – | – | – | – | – | – | – | – | 4 | 83 | 121 | 285 | 375 | 297 |
| PCWDAWMLCTD (linker 2-9 via Phenylene(1,4-NHCOCH2)2 (inferred)) | – | – | – | – | – | – | – | – | 19 | 142 | 542 | 632 | 701 | 581 |
| PCWEAWLWCSM (linker 2-9 via Phenylene(1,4-NHCOCH2)2 (inferred)) | – | – | – | – | – | – | – | – | 0 | 0 | 4 | 124 | 194 | 145 |
